The results in this text go back to US20040191820, “Protection-of telomere-1 (POT-1) protein and encoding polynucleotides” (The Regents of the University of Colorado, published 2004).

Series [1] concerns the target T1, hPot1p (Homo sapiens, UniProt Q9NUX5 SEQ:1-634).
T1 chain: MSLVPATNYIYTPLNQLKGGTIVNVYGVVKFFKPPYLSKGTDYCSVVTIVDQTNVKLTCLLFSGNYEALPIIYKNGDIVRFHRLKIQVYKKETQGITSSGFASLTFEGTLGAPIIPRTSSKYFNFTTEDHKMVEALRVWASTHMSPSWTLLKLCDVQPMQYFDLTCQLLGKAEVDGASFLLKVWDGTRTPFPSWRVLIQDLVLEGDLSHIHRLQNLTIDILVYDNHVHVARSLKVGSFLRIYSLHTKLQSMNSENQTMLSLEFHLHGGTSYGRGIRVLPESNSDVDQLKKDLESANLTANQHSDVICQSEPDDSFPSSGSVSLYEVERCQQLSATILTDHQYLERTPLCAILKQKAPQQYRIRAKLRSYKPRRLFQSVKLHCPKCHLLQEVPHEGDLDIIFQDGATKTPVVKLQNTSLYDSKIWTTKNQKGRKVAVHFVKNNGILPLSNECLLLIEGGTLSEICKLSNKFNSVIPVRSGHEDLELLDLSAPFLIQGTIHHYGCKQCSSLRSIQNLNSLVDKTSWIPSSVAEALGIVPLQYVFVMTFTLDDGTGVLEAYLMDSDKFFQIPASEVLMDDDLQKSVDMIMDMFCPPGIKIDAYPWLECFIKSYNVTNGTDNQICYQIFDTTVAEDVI
In words: listed as hPot1p-binding. Conditions: tags: N-terminal His6 (pQE30), E. coli.

In series [2] the target is T1, hPot1p. In words: EMSA; conditions as for SpPot1p. Conditions: tags: N-terminal His6 (pQE30), E. coli. For orientation: In EMSA bound probe runs differently from free probe, usually more slowly.

As for GGTTAGGGTTAGGGTTAGGG (ssDNA) [PBoli178], the binding result with hPot1p [1] is recorded as “binds”.

In the case of TTAGGGTTAGGGTTAGGGTT (ssDNA) [PBoli177], in the series with hPot1p [1], the binding result was “binds”.

On to TTAGGGTTAGGGTTAGGGTTAGGGTTAGGG (ssDNA) [human G-strand (TTAGGG)5 (PBoli179)], for which, in the series with hPot1p [2], the binding result is “binds”.
